Experiment: yeast display, Sf9 membrane polyspecificity reagent, FACS + sequencing; frameworks hold sequencing errors
How it was run: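 Nanobodies came from a synthetic yeast display library in Saccharomyces cerevisiae BJ5465, induced with galactose for 36–48 hours and stained for 1 hour at 4 °C with 10% biotinylated, detergent-solubilized Sf9 membrane reagent. Cells were enriched on streptavidin microbeads and then FACS-sorted, with low and high (top ~1%) gates set on anti-HA fluorescence for expression and streptavidin fluorescence for reagent binding. Each polyreactivity label reflects the gate a clone came from. Genes were amplified by colony PCR, sequenced by MiSeq 2 × 250 and filtered by CDR length.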

Sequence	polyreactivity (PSR sort gate)
QVQLVESGGGLVQAGGSLRLSCAASGSNFHLYAMGWYRQAPGKERELVADIDLSGGSTYYADSVKGRFTISRDNAKNTVYLQMNSLKPEDTAVYYCGADHVSSLGFDYWGQGTEVTVSS	low polyreactivity
QVQVVESGGGLVQAGGSLRLSCAASGSIFKFNAMGWYRQAPGKERELVAAISYSGGNTDYADSVKGRFTISRDNAKNTVYLQMNSLKPEDTAVYYCAATSYLVLTLEYDYWGQGTQVTVSS	low polyreactivity
QVQLVESGGGLVQAGGSLRLSCDASGFTFTAYAMGSYRQAPGKERELVAAINWSGSRTYYADSVKGRFTISRDNAKNTVYLQMNSLNPEDTAVYYCAAGWTSSRYDYWGQGTQVTVSS	high polyreactivity
QVQLVESGGGLVQAGGSLRLSSAASGRIFYPYTIGWYRQAPGKERELVAAISSTGRTNYADSVKGRFTISRDNAKNTVYLQMNSVKPEDTAVYYCAKGFRKYSLGPPGNDYWGQGTQVTVSS	high polyreactivity
QVQLVESGGGLVQAGGSLRSSCAASGSLFTSNTMGWHRQAPGKERELVAAITSSGGSMFYADSVKGRFTISRDNAKNTVYLQMNSLKPEDNAVYYCAADTIGYHDWYDYWGQGTQVTVSS	low polyreactivity
QVQLVESGGGLVQAAGSLRLSCAASGLTFPFYTMGWYIQAPGKARELVAAISRRGGSTYYADSVKGRFTISRDNAKNTVYLQMNSLKPEDTAVYYCAADKYSWYDYWGQGTQVTVSS	low polyreactivity
QVQLVESGGGLVQAGGSLRLSCAASGRTFFYYTMGWYRQAPGKEREFVASISWSGASTYYADSVKGRFTISRDNAKNTVYLQMNSLKPEDSAVYYCAAPVTGGAYGYDYWGQGTQVTVSS	high polyreactivity
QVQLVESVGGLVQAGGSLRLSSAASGRTFYFYTMGWYTQAPGKERELVATIRWSAGSTYYADSVKGRFTISRDNAKNTVYLQMNSLKPEDTAVYYCNADPYVYSSWQYGYWGQGTQVTVSS	high polyreactivity
QFQLVESGGGLVQAGGSLRLSCAASGIIFTTYVMGWYRQAPGKERELVAAISRGGRTYYADSVKGRFTSSRDNAKNTVYLQMNSLKPEDTAVYYCARVAYKGYGEDDYWGQGTQVTVSS	high polyreactivity
QVQLVESGGGLVQAGGSLRLSCAASGFIFLVNAMGWYRGAPGKERELVAAISKSTGGTYYADSVKGRFTISRDNAKNTVYLQMNSLKPEDTAVYYCAADEVYPVQRDMDYWGQGTQVTVSS	low polyreactivity
QVQLVESGGGLVQAGGSLRLSCAASGIIFYANVMGLYRQAPGKERELVAGISRNGGRTYYADSVKGRFTISRDNAKNTVYLQMNSLKPADTAVYYCAALGSYTSIFDYWGQGTQVTVSS	high polyreactivity
QVQLVESGGGLVQAGGSLRFSCAASGRIIEQNAMGWYIQAPGKERELVATITRRGGRTYYADSVKGRFTISRDNAKNTVYLQMNSLKPEDTAVYYCNQVSYARGYDYWGQGTQVTVSS	high polyreactivity
QVQLVETGGGLVPAGGSLRLSCAASGSTFQRYAMGWYRQAPGKERELVAAITWSGGSTKYADSVKGRFTISRDNAKNTVYLQMNSMKPEDTAVYYCARTYGSSRWGQGTQVTVSS	low polyreactivity
QVQLVESGGGLVQAGGSLRLSCAASGYTIRGYVMGWYRQAPGKERELVAAISASGGRTYYADSVKGRFTISRDYATNTVYLLMNSLKPEDTAVYYCAADSSRTPLEFDYWGQGTQVTVSS	high polyreactivity
QVQLVESGGGLVQAGGSLRLSCAASGFILRAYAMGWYRQAPGKEREFVAAITRRGGSTYYADSVKGRFTISRDNAKNTVYLQMNSLKPEDTAVYYCAAKFFSSPHNLGYWGQGTQVTVSS	high polyreactivity
QVQLVESGGGLVQAGGSLRLSCAAYGRIFNDYTMGWYRQAPGKERELVADITNRDTSTSYADSVKGRFIISRDNANNTVYLQMYILKPDDTAVYYCNAQQVIVVYRPGDYWGQGTQVTVSS	low polyreactivity
QVQLVESGGRIVQAGGSLRLSCAASGFIYSKYAMGWSRPAPGKEGQLVAAISSSGGYTYYADSVKGRFTISRDNAKNTVYLQMNSLKPEATAVYYCNADYLFYAFDYWGHGTQVTVSS	low polyreactivity
QVQLVESGRGLVQAGASLRLSCAASGRTFPYYARGRYRQAPGKERELVAAITTGGSTNYADSVKGRFTISRDNAKNTVYLQMNRLKPEDTAVYYCAKRFYRSRLNYYYWGQGTQVTVSS	high polyreactivity
QVQLVESGAGLVQAGGSLRLSCAASGFIFAGNAMGWYIQAPGKERELVAAITRRGGSTHYADSVKGRFTISRDKAKNTVYLQMNSLKPEDTAVYYCNAAVQPPLSDYWGQGTQVTVSS	low polyreactivity
QVQLVESGGGLVQAGGSLRLSCAASGRTFWRYAMGWYRQAPGKERELVAGITSRGGSTYYADSVKGRFTISRDNAKNTVYLQMNSLKPEDTAVYYCNRRSQVHSHSKHDYWGQGTQVTVSS	low polyreactivity
QVQLVDSGGGLVQAGGSLRLSCAASGRIFSWYTMGWYRQAPGKERELVAVITSGGTTKYADSVKGRFTISRDNAKNTVYLQMNSLKPEDTAVYYCNGAGRDYAVRWGSFDYWGQGTQVTVSS	low polyreactivity
QVQLVESGGGLFQAGGSLRLSCAPSGSIIIRNAMGWYRQAPGKEREWVAVISSSVGRTYYADSVKGRFTISRDTAKNTVYVQMNSLKPEVTAVYYCAARWYSGYGRFDYWGQVTQVTVSS	high polyreactivity

Sequence	polyreactivity (PSR sort gate)
QFQLVESGGGLVQAGGSLRLSCAASGFIFYKYAMGGYRQAPGKERELVAAISSGGSPYYADSVKGRFTISRDNAKNTVYLQMNSLKPEDTAVYYCNKVYRSYRSGFYGGDYWGQGTQVTVSS	high polyreactivity
QVQLVESGGGLVQAGGSLRLSCAASGSTFKSYAMGWYRQAPGKERELVAAITHRGSTYYADSVKGRFTISRDNAKNTVYLQMNSLKPEDTAVYYCAASLRAPSLGHYYYWGQGTQVTVSS	high polyreactivity
QVQLVESGGGLVQAGGSLRLSCAASGSIFQIYAMGWYRQAPGKESELVATINRGDNTYYADSVKGRFTISRDNAKNTVYLQMHSLTPEDSAVYYCNVDRQVITGRYIGDYWGQGTLVTVSS	low polyreactivity
QVQLVESGGGLVQAGGSLRLSCAASGSTIYFNGMGWYRQAPGKERELVAAITSGGSTDYADSVKGRFTISRDNAKNTVDLQMNSLKPEDTAVYYCAADGEDSLWTGYDYDYWGQGTQVTVSS	low polyreactivity
QVQLVESGGGLVQAGGSLRLSCAASGFTVDYYAMGWYLQAPGKERELVAAISSSGGSTYYADSVKGRFTISRDNAKNTVYLLMNSLKPEDTAVYYCATGHSKQYDYWGQGTQVTVSS	high polyreactivity
QVQLVESRGCLVQAGGSLRLSCSASGYIFVYYAMGWYRQAPGKEWELVAAISRGGSTYYADSVKGRFTISRDNAKNTVYLQMNSLKPEDTAVYYCNKVLPYGREYGYCGQGTQVTVSS	high polyreactivity
QVQLVESGGGLVQAGGSLRLSCAASGRIFLGYAMGWYRQAPGQERELVASITSSGGSTYYADSVKGRFTISRDNAKNTVYLLMNSLKPEDTAVYYCAKVGHYRWGWLSRAASDYWGQGTQVTVSS	high polyreactivity
QVQLVESGGGLVQAGGSLRLSCAASGITFDKYAMGWYRQAPGKERELVARITSGGGTNYADSVKGRFTISRDNAKNTVYLQMNSLKPEDTAVYSCNKRTSPKRFDYWGQGTQVTVSS	high polyreactivity
QVQLVESGGGLVQAGGSLRLSCADSGRTFYYYAMGWYRQAPGKERELVASITYYADSVKGRFTISRDNAKNTVYLQMNSLKPVDTAVYYCAKDLYSNDLYRRYDYWGQGTQVTVSS	low polyreactivity
QVQLVESGGGLVQAGGSLRLSCAAYGFTFVDFVMGWSIQAPGKERELVAAITTSGTRTSYADSVKGRFTISRDNAKNTVYLQLNSLKPEDTAVYYCNADHKSIYPKYRGRFYYWGQGTQVTVSS	high polyreactivity
QVQLVESGGGLVQAGGSLRLSCAASGSTFVNNAMGWYRQAPGKERELVAAISKTGGRTRYADSVKGRFTISRDNAKNTVYLQMNSLKPEDTAVYYCAARYYGGGYNYWGQGTQVTVSS	high polyreactivity
QVQLVESGRGLVQAGGSLRLSCAASGFIFSYYAMGWYRPAPGKERELVAAITVTGGNTNYADSVKGRFTISRDNAKNTVYLQMNSLKPEDTAVYYCAAVVRGPGVYVYDWGQGTQVTVSS	low polyreactivity
QVQLVESGGGLVQAGGSLRLSCAASGRIFVRYVMGWYRLAPGKERELVAAINWNGGSTYYADSVKGRFTISRDNAKNTVYLQMNSLKPEDTAVYYGAARGQFYNTRGGYWGQGTQVTVSS	high polyreactivity
QVQLVESGGGLVQAGGSLRLSCAASGYIFGQNHMGWYRQAPGKERELVAAISSDGSTYYADSVKGRFTISRDNAKNTVYLQMNSLKQEDTAVYYCKYYHQRFPYRQVYYWGQGTQVTVSS	low polyreactivity
QVQLVESGGGLVQAGGSLRLSCAASGFTFDINAMGWSRQAPGKERELVAAISRSGGRTYYADSVKGRFTISRDNAKNTVYLQMNSLKPDDTAVYYCAARYPERRYNTFDYWGQGTQVTVSS	high polyreactivity
QVQLVESGGGLVQAGGSLRLSCAASGRTFGYYAMGWYRQAAGKDREFVAAITAGRGSTYYPDSVKGRFTISRDNAKNTVYLQMNSLKPEETAVYYCNAVPPGRTPVKGNFYYWGQGTQVTVSS	high polyreactivity
QVQLVESGGGLVQAGGSLRLSCAASGFISAYYAMGWYRQAPAKERELVAGINSNGGSTYYADSVKGRFTISRDNAKNTVYLQMNSLKPEDTAVYYCNKRYRHLYYKSVGSYDYWGQGTQVTVSS	high polyreactivity
QVQLVESGGGLVQAGGSLRLSCAATVSIFDRNAMGWYRQAPGKERELVAAISSVGSTNYADSVKGRFTISRDNAKNTVYLQMNSLKPEDTADYYCAAENEFIPSLFDYWGQGTQVTVSS	low polyreactivity
QVQLVESGGGLVQAGGSLRLSCAASGSIYLYNAMGWYRQAPGKERELVAVINGRGGTYYADSVKGRFTISRDNAKNNVYLQMNSLKPEDTAVYYCATGYAPSAWYDSVRFEDRDSWGQGTQVTVSS	low polyreactivity
QVQLVESGGGLVQAGGSLRLSCDASGRILIGYTMGWYRQAPGKERELVARINYSGGSTYYADSVKGRFTISRDNAKNTVYLQMNSLKPEDTAVYYCDADVRRGYYTWPPRRVYYWGQGTQVTVSS	high polyreactivity
QVQLVESGGGLVQAGGSLRLSCAASGSTFIGYDMGWYRQAPGKERELVAAISYSDGTYYADSVKGRFTISRDNAKNTVYLQMNSLKPEDTAVYYCAAVSLYYRYDYWGQGTQVTVSS	low polyreactivity

Reference: the nanobody polyreactivity screen of Harvey et al. (2022)
